Results: patent US20090130105A1 (Biogen, published 2009)
Changes are numbered by the printed parent chain. Names may count otherwise.

B1: M14-C03 antibody (antibody, V domains shown)
VH: EVQLLESGGGLVQPGGSLRLSCAASGFTFSKYMMSWVRQAPGKGLEWVSYISPSGGLTWYADSVKGRFTISRDNSKNTLYLQMNSLRAEDTAVYYCARDGARGYGMDVWGQGTTVTVSS
VL: DIQMTQSPATLSLSPGERATLSCRASQSVSSYLAWYQQKPGQAPRLLIYDASNRATGIPARFSGSGSGTDFTLTISSLEPEDFAVYYCQQRSNWPPEVTFGPGTKVDIK
notes: Fully human full-length antibody (ATCC PTA-7445); also called M14.C03.G4.P.agly
B2: MJF034, C06 (VL/GS3/VH) scFv with VL A51G (scFv)
scFv: DIQMTQSPLSLSASVGDRVTITCQASRDIRNYLNWYQQKPGKAPKLLIYDGSSLQTGVPSRFGGSGSGTDFSFTIGSLQPEDIATYYCQQFDSLPHTFGQGTKLEIKGGGGSGGGGSGGGGSEVQLLESGGGLVQPGGSLRLSCAASGFTFSIYRMQWVRQAPGKGLEWVSGISPSGGTTWYADSVKGRFTISRDNSKNTLYLQMNSLRAEDTAVYYCARWSGGSGYAFDIWGQGTMVTVSSDDDKSFLEQKLISEEDLNSAVDHHHHHH
notes: Kabat positions
B3: MJF042, C06 (VL/GS3/VH) scFv with VL S77G, I83G (scFv)
scFv: B2 scFv with G51A, S77G, I83G
notes: Kabat positions
B4: MJF049, C06 (VL/GS3/VH) scFv with VH R83T (scFv, name in Kabat numbering)
scFv: B2 scFv with G51A, R209T
notes: Kabat positions
B5: MJF050, C06 (VL/GS3/VH) scFv with VH T110V (scFv, name in Kabat numbering)
scFv: B2 scFv with G51A, T239V
notes: Kabat positions
B6: MJF043, C06 (VL/GS3/VH) scFv with VL I83D (scFv)
scFv: B2 scFv with G51A, I83D
notes: Kabat positions
B7: MJF039, C06 (VL/GS3/VH) scFv with VL T20R, R30N, G63S, S72N (scFv)
scFv: B2 scFv with T20R, R30N, G51A, G63S, S72N
notes: Kabat positions
B8: MJF051, C06 (VL/GS3/VH) scFv with VL S77G, I83Q (scFv)
scFv: B2 scFv with G51A, S77G, I83Q
notes: Kabat positions
B9: MJF040, C06 (VL/GS3/VH) scFv with VL I83M (scFv)
scFv: B2 scFv with G51A, I83M
notes: Kabat positions
B10: MJF038, C06 (VL/GS3/VH) scFv with VL G63S, S72N (scFv)
scFv: B2 scFv with G51A, G63S, S72N
notes: Kabat positions
B11: MJF047, C06 (VL/GS3/VH) scFv with VL I83G (scFv)
scFv: B2 scFv with G51A, I83G
notes: Kabat positions
B12: MJF035, C06 (VL/GS3/VH) scFv with VL S72N (scFv)
scFv: B2 scFv with G51A, S72N
notes: Kabat positions
B13: MJF037, C06 (VL/GS3/VH) scFv with VL S72Y (scFv)
scFv: B2 scFv with G51A, S72Y
notes: Kabat positions
B14: MJF048, C06 (VL/GS3/VH) scFv with VH R83K (scFv, name in Kabat numbering)
scFv: B2 scFv with G51A, R209K
notes: Kabat positions

target: T1, hIGF-1R-Fc mutant SD103 (D461A, V462T) (human, UniProt P08069 31-933); experiment: SPR, immobilized antibody
T1 construct: not shown: human IgG1 Fc, C-terminal tag
Procedure: Surface plasmon resonance (SPR) experiments were performed on a Biacore 3000 instrument set to 25° C. […] The antibody sensorchip surfaces were prepared by injecting each antibody (diluted 100 μg/mL in 10 mM Acetate, pH 4.0) over EDC/NHS-activated sensorchip surfaces according to the standard protocol of the manufacturer. […] Both hIGF-1R-Fc and mIGF-1R-Fc proteins oligomerize due to the incorporation of two separate homodimeric regions (IGF-1R and IgG1-Fc). […] After, completion of the receptor-Fc loading step, flow rates were elevated to 5 μl/min. […] Dissociation was measured for 7 minutes after the antibody injections were complete. Finally, the flow rate was elevated to 30 μL/min and the chip surfaces were regenerated by 2×10 μL injections of 0.1 M glycine, pH 2.

T1 sequence (P08069 31-933 D491A/V492T): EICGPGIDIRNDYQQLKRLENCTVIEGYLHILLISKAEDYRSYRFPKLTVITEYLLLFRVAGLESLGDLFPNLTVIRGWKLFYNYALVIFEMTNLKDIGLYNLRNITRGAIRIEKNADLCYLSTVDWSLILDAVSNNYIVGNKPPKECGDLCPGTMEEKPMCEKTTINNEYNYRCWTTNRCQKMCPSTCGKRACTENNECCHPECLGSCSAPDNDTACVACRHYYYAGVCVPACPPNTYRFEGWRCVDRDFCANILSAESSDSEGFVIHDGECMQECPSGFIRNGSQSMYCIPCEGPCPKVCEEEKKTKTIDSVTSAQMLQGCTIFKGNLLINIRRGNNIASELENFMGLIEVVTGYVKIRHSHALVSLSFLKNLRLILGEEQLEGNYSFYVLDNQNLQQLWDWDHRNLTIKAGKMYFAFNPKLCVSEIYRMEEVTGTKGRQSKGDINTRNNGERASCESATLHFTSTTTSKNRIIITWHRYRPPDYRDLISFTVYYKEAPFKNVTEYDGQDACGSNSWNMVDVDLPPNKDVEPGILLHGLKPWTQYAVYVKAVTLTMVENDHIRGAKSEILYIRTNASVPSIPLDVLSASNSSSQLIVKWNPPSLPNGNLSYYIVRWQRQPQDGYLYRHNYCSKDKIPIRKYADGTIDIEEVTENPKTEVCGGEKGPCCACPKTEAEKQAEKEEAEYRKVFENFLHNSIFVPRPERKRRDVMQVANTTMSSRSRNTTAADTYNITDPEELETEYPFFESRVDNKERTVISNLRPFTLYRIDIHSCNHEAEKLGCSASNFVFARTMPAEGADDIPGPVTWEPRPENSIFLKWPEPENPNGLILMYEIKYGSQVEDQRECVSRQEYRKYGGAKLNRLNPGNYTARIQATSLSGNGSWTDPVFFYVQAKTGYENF

B1: no binding.

target: T2, human IGF-1R(1-903)-Fc (human, UniProt P08069 31-933); experiment: biolayer interferometry (Octet), IGF-1R Fc on Protein A sensors, scFv culture supernatant; design: unit not given here
T2 construct: also called hIGF-1R-Fc; SDWT; not shown: human IgG1 Fc, C-terminal tag
Source text: Individual transformed colonies were picked into deep-well 96 well dishes and processed for screening as described above. […] For off-rate analyses IGF-1R Fc was immobilized onto the surface of Protein A biosensors. […] ScFvs were allowed to bind to immobilized IGF-1R Fc for 300-seconds. Off-rate was subsequently assayed for 600 seconds.

T2 sequence (P08069 31-933): as the sequence (P08069 31-933 D491A/V492T) above, with A461D, T462V counted along it

First: B2
Second: B3
The “Kd (1/sec), off-rate as tabulated (XWU092 = 1.00)” value (“Kd (1/sec), off-rate as tabulated” below) of the first is higher: 0.81 for the first, 0.55 for the second.

First: B4
Second: B5
The “Kd (1/sec), off-rate as tabulated” value of the first is lower: 1.41 for the first, 1.68 for the second.

Compared with B6, B7 is lower in “Kd (1/sec), off-rate as tabulated” value: 1.12 for the first, 0.56 for the second.

Going from B8 to B9, the “Kd (1/sec), off-rate as tabulated” value falls from 1.1 to 0.76.

Going from B10 to B11, the “Kd (1/sec), off-rate as tabulated” value rises from 0.76 to 1.44.

Compared with B12, B13 is higher in “Kd (1/sec), off-rate as tabulated” value: 0.54 for the first, 0.76 for the second.

With B14 the “Kd (1/sec), off-rate as tabulated” value was 1.37.

target: T2, human IGF-1R(1-903)-Fc; experiment: competition ELISA: antibody diluted in human IGF-2 His solution, added to biotinylated hIGF-1R-Fc on streptavidin plates, bound IGF-2 His detected with anti-His-HRP (blocked ligand: IGF-2 His)
Procedure: (§1) hIGF-1R-Fc was biotinylated using EZ-Link Sulfo-NHS-LC-Biotin according to the protocol provided by the manufacturer (Pierce Cat. No. 21335). Biotinylated human IGF-1R Fc (NB12453-9) at 5 μg/ml was added to the wells of SigmaScreen streptavidin-coated 96-well plates (Sigma, Cat. No. M5432-5EA) at 100 μL/well and incubated overnight at 2-8° C. The plates were then washed four times with 200 μL/well PBST. […] The dilutions were added to the plates in duplicate at 100 μL/well and the plates were incubated at RT for 1 hour. The plates were then washed four times with 200 μL/well PBST. An HRP-conjugated anti-Histag antibody (Penta-His HRP Conjugate, QIAGEN, Cat. No. 1014992) was diluted 1:1000 in PBST and added to plates at 100 μL/well, and the plates were incubated at RT for one hour. The plates were then washed four times with 200 μL/well PBST. SureBlue Reserve TMB Microwell Peroxidase Substrate (KPL, Cat. No. 53-00-01) was added to plates at 100 μL/well followed by 1% phosphoric acid at 100 μL/well once the desired reaction was observed. The absorbance of each well was determined at 450 nm, and the results were normalized and plotted against the log of antibody concentration.

B1 was tested, and the “IC50 (read off the curve)” value was roughly 1000 pM.

target: T2, human IGF-1R(1-903)-Fc; experiment: competition ELISA: antibody diluted in 320 nM human IGF-1 His, added to biotinylated hIGF-1R-Fc on streptavidin plates, bound IGF-1 His detected with anti-His-HRP (blocked ligand: IGF-1 His)
Procedure: as §1

In the case of B1, the “IC50 (read off the curve)” value is reported as roughly 5 nM.
